Here are results for five molecules from publication PMC2823633 (The Journal of neuroscience : the official journal of the …, 2009).

For the test, the target named is T1, GST fusion of the Mint1 PDZ-2 domain (740-825) (UniProt Q02410 740-825, Cys 742 replaced with Ser).
T1 sequence (looked up): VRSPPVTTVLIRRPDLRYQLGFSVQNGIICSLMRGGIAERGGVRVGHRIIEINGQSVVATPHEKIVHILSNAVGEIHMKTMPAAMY
Put plainly: ELISA.

As for TAKCAARFPTWL [synthetic artificial peptide TAKCAARFPTWL], the binding result is “binds”.
Take GVPARTQVEVWV [synthetic artificial peptide GVPARTQVEVWV]: the binding result is on record as “binds”.
As for ASYCKQRNIVWL [synthetic artificial peptide ASYCKQRNIVWL (positive control)], the entry is “binds”; as for GVPARTQVAVAV [doubly substituted peptide GVPARTQVAVAV], “binds”.
As for GHLSESSQVRWL [synthetic artificial peptide GHLSESSQVRWL (positive control)], the entry is “binds”.
